Consider 30 sequences from the nanobody polyreactivity screen of Harvey et al. (2022).

The series in a line: yeast display, Sf9 membrane polyspecificity reagent, FACS + sequencing; frameworks hold sequencing errors. The essentials:
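Galactose induction of a Saccharomyces cerevisiae BJ5465 synthetic nanobody display library ran 36–48 hours. The cells were then stained for 1 hour at 4 °C with 10% biotinylated, detergent-solubilized Sf9 membrane reagent, pulled down on streptavidin microbeads and FACS-sorted into low and high (top ~1%) gates on expression and reagent-binding fluorescence. Labels for polyreactivity follow the gate of origin.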
For “QVQLVESGGGLVQAGGSLRLSCAASGSTFYEYAMGWYRQAPGKERELVAAISWSDVDTYYADSVKGRFTISRDNAKNTVYLQMNSLKPEDTAVYYCAAEWYHPYTQEMDYWGQGTQVTVSS”, the “polyreactivity (PSR sort gate)” value was “high polyreactivity”.

For the sequence “QVQLVESGGGLVQAGGSLRLSCAASGSTFWVYTMGWYRQAPGKERELVAAINYSDGSTYYADSVKGRFTISRDNAKNTVYLQMNRLKPEDTAVYYCAAGSDPTGRRYDYWGQGTQVTVSS”, the “polyreactivity (PSR sort gate)” value was “low polyreactivity”.

Consider “QVQLVESGGGLVQAGGSLRLSCADSGRTFFYNGMGWYRQAPGKERELVAAISGSGSRTYYADSVKGRFTISRDNAKNTVYLQMNSLKPEDTAVYYCAATRVISHYRFDYWGQGTQVTVSS”, for which the “polyreactivity (PSR sort gate)” value is recorded as “high polyreactivity”.

On to “QVQLVESGGGLVEAGGSLRLSCAASGRIFHANAMGWYRQAPGKERELVAGISRHGGRTYYADSVKGRFTMSRDNAKNTVYLQMNSLNPEDTAVYYCNALDWQYKELDYYWGQGTQVTVSS”, for which the “polyreactivity (PSR sort gate)” value was “high polyreactivity”.

Turning to “QVQLVESGGGLVQAGGRLRLSCAASGSTFKAYAMGWYRQAPGKERELVAAISSGGSRTYYADSVKGRFTISRDNAKITVYLQMHRLKPEDIEVYYCAARKADTVFKFEYWGQGTLVTVSS”, the “polyreactivity (PSR sort gate)” value was “high polyreactivity”.

Take “QVQLVESGGGLVQAGGSLRLSCAASGRIFIKNAMGWYRQAPGKERELVAAISSGSSTYYADSVKGRFTISRDNAKNTVYLQMNSLKPEDTAVYLYGSWGQGTQVTVSS”: the “polyreactivity (PSR sort gate)” value was “low polyreactivity”.

Turning to “QVQLVESVGGLVQAGGSLRLSCAASGSTFAANAMGWYRQAPGKASELVAAITSVGTTYYADSVKGRFTISRDNGKNTVYLQMNSLKPEDTEVYYCNAEYGVWYDYLVVPYDYWGQGTQVTVSS”, the “polyreactivity (PSR sort gate)” value is reported as “low polyreactivity”.

Consider “QVQLVESGGGLVQAGGTLRLSCAASGRTFTYYAMGWSRQAPGKEREIVSAISSTGTSTYYADSVKGRFTISRDNAKNTVYLQMNSLKPEDTAVYYCNARVATYRLHSKFYYWGQGTQVTVSS”, for which the “polyreactivity (PSR sort gate)” value is recorded as “high polyreactivity”.

As for “QVQLVESGGGLVQAGGSLRLSCAASGGTFRAYVMGWYRQAPGKERELVAAISRSGTRTYYADSVKGRFTISRDNAKNTVYLQMNSLKPEDTAVYYCAAQAGVYYDYEYWGQGTLVTVSS”, the “polyreactivity (PSR sort gate)” value is recorded as “high polyreactivity”.

For the sequence “QVQLVESGGGLVKAGGSLRLSCAASGSNFNPYAMGWYRQEPGKQRELVAAITGSGRSTYNSDSVKGRFTISRDNAKNTVYLEMNSLKPEDTAVYYCNRARILVWSKYGYWGQGTQVTVSS”, the “polyreactivity (PSR sort gate)” value is listed as “high polyreactivity”.

Take “QVQLVESGGGLVQAGGSLRLSCAASGRIFGLYAMGWYRQAPGKERELVAAIRGRGGRTSYADSVKGRFTISRDNAKNTVYLQMNSLKPEDTAVYYCNAELYPWPGVVRYNYWGHGTQVTVSS”: the “polyreactivity (PSR sort gate)” value is recorded as “high polyreactivity”.

With “QVQRVESGGGLVQAGGSLRLSCAASGRIFWYYAMGWYRQAPGTERQLVAAITSGGRTNFADSVKGRFTISSDNAKNSVYLQMNSLKPEDTAVYYCAAGYYNYLYRLRDQDFDYWGQGTQVTVSS”, the “polyreactivity (PSR sort gate)” value is on record as “high polyreactivity”.

Take “QVQLVESGGGLVQAGGSLRLSCAASGSTFNPYAMGWYRQAPGKERELVATITWRGTSTYYADSVKGRFTISRDNAKNTVYLQMNSLKPEDTPVYYCAARVRYKYDYWGQGTQVTVSS”: the “polyreactivity (PSR sort gate)” value is on record as “high polyreactivity”.

Consider “QGQLVESGGGLVQAGGSLRLSCAASARTYGNYAMGRYREAPGKERELVADITRRGGSTSYADSVKGRFTISRDNAKNTVYLQMNSLKPEDTAVYYCNKRTTPYYSQGITRIEYDYWGQGTQVTVSS”, for which the “polyreactivity (PSR sort gate)” value was “low polyreactivity”.

Regarding “QVQLVESGGGLVQAGGSLRLSCAASGFTFRWYTMGWYRQAPGKERELVAAISWSGTSTYYADSVKGRFTISRDNAKNIVYLQMNSLKPEDTAVYYCAAADFYYTGADDYWGQGTQVTVSS”, the “polyreactivity (PSR sort gate)” value was “high polyreactivity”.

In the case of “QVQLVESGGGLVQAGGSLRLSCAASGLTFRQYAMGWYRQAPGKERELVAAITNGGRTYYADSVKGRFTISRDNAKNTVYLQMNSLKPEDTAVYYCAAYVPTFKDRSRWYGRKYDYWGQGTQVTVSS”, the “polyreactivity (PSR sort gate)” value is “low polyreactivity”.

For “QVQLVESGGGLVQAGGSLRLSCAASGRIFYNYAMGWYRQAPGKERELVAAISGSGGSTYYADSVKGRFTISRDNAKNTVYLQMNSLKPEDTAVYYCAKDYRWDRKFDYWGQGTQVTVSS”, the “polyreactivity (PSR sort gate)” value is “low polyreactivity”.

With “QVQLVESGGGLVQAGGSLRLSCAASGSIFTRNAMGWYRPAPGKERELVAAISRRGVSTYYADSVKGRFTTSRDNAKNTVYLQMNSLKPEDTAVYYCNKLSSYVVARRTTEYDYWGQGTQVTVSS”, the “polyreactivity (PSR sort gate)” value is on record as “high polyreactivity”.

With “QGHREESGGGLVQAGGSLRLSCAASGSTFGIYALGWYIQEQGKERELVAAITWSGSSTYYADSVKGRFTISRDNAKNNVYLQINSLKPEDTAVYYCAAEDTLYEYYYWGQGTQVTVSS”, the “polyreactivity (PSR sort gate)” value is “high polyreactivity”.

“QVQLVESGGGLVQAGGSLRLSCAASGGIFGLYTMGWYRQAPGKERELVAGISKRGTRTRYADSVKGRFTISRDHAKNTVYLQMNSLKPEDTAVYYCNADYYVSKLDYWGQGTQVTVSS”: the “polyreactivity (PSR sort gate)” value is on record as “high polyreactivity”.

On to “QVQLVESGGGLVQAGGSLRLSCAASGRIFGINAMGSYRQAPGKERELVAAINWSGGSTYYADSVKGRFTISRDNAKNTVYLQMNSLKPEDTAVYYCAAQKYKRVGYWGQGTQVTVSS”, for which the “polyreactivity (PSR sort gate)” value was “high polyreactivity”.

Take “QVQLVESGGGLVQAGGSLRLSCAASGSIFFGNAMGWYRQAPGKERELVAAIDSGGGTNYADSVKGRFTISRDNAKNTVYLQMNSLKPEDTAVYYCAREQGVNRNHDYWGQGTQVTVSS”: the “polyreactivity (PSR sort gate)” value was “low polyreactivity”.

In the case of “QVQLVESGGGLVQAGGSLRLSCAASGRIFSYYDMGWYRQAPGKERELVAAITWRGGSTYYADSVKGRFTISRDNAKNTVYLQMNSLKPEDTAVYYCAADWYPSIWEYDYWGQGSQVTVSS”, the “polyreactivity (PSR sort gate)” value is reported as “low polyreactivity”.

Turning to “QVQLVESGGGLVQAGGSLRLSCAASGRIFRYYTMGWYRQAPGKERELVATISWNGSNTYYADSVKGRFTISRDNAKNTVYLQMNSLKPEDTAVYYCAAGVLPGLYNGARLFDYWGHGTQVTVSS”, the “polyreactivity (PSR sort gate)” value is on record as “low polyreactivity”.

Regarding “QVQLVESGGGLVQAGGSLRLSCAASGLTFDWYALGWYRQAPGKERELVAAISWNGVSTDYADSVKGRFTISRDNAKNTVYLQMNSLKPEDTAVYYCNAKGQRNKRWRGYWGQGTQVTVSS”, the “polyreactivity (PSR sort gate)” value is on record as “high polyreactivity”.

Regarding “QVQLVESGGGLVQAGGSLRLSCAASGSTFKFYAMGWYRQAPGKERELVAAISGSSGSTYYADSVKGRFTISRDNAKNTVYLQMNSLKPEDTAVYYCNTQYSRYYTRYSAYDYWGQGTQVTVSS”, the “polyreactivity (PSR sort gate)” value is “low polyreactivity”.

For the sequence “QVQLVESGGGLVQAGGSLRLSCAAYGRTFGRYAMGCYRPAPGKERELVAAITVGGGSKYYADSVKGRFTISRDNAKNTVYLQMNSLKPEDTAVYYCNALHTYTYRYDYYYWGQGTQVTVSS”, the “polyreactivity (PSR sort gate)” value is “high polyreactivity”.

Take “QVQLVESGGGLVQAGGSLRLSCAASGFTFSRYAMGWYRQAPGKERELVAAITRRGGRTYYADSVKGRFTISRDNAKNTVFLQMNSLKPEDTAVYYCITDAYRLGYDYWGQGTQVTVSS”: the “polyreactivity (PSR sort gate)” value is on record as “high polyreactivity”.

As to “QVQLVESGGGLVQAGGSLRLSCAASGFTIQPYTMGWYRQATGKERELVAAISKSGGSTYYADSVKGRFTISRDNAKNTVYLQMHSLKPEDTAVYYCAAVGWWGTSDYWGQGTQVTVSS”, the “polyreactivity (PSR sort gate)” value is listed as “high polyreactivity”.

Take “QVQLVESGGGLVQAGGSLRLSCAASGSTFYRNAMGWYRQAPGKERELVAAITSGGSSTYYADSVKVRFTISRDNAKNTVYLQMNSLKPEDTAVYYCAAEPGIYYYWGQGTQVTVSS”: the “polyreactivity (PSR sort gate)” value is “low polyreactivity”.
